Legend:
[1] = Sustained release of lysozyme from sulfated dextran hydrogel beads: PBS wash then high salt elution, UV detection; assay type: physicochemical
Excerpt: A preparation of cross-linked, sulfated dexan affinity chromatography resin beads were obtained from a commercial source (Sigma. St, Louis, Mo.). More particularly, 4% cross-linked sulfated beaded dextran was obtained as a lyophilized powder stabilized in lactose. The sulfate ligand will bind with a charged guest substance (e.g. a peptide or protein) at low salt concentration. This binding is reversible and the bound guest can be desorbed at a high salt concentration.
In the study, lysozyme (Sigma) was loaded into the beads using the techniques described in commonly held International Application No. PCT/GB00/00349.
Particularly, each gram of the sulfated dextran beads was washed with approximately 3×500 ml deionized water. Excess water was removed by vacuum filtration. A loading solution was prepared by dissolving 4.00 g lysozyme in 200 ml deionized water, yielding a 20 mg/ml solution. The loading solution was added to the hydrated dextran beads at a 1:1 ratio to provide a suspension. The suspension was stirred for one hour, and excess solution was drained from the hydrated beads. The loaded beads were then divided into two portions. The first portion (5.7 cc, experimental) was placed into a column (Econo column, BioRad, Hercules, Calif.) and washed with a phosphate buffered saline (PBS) solution (pH 7.4) for 19.6 hours, then eluted with 21.2 ml of a high salt elution buffer (1.0M ammonium sulfate, 50 mM sodium phosphate, pH 7.2). […] The amount of lysozyme released from the dextran beads during the PBS wash was determined by comparison against the amount of lysozyme eluted by the elution solution for both the experimental and the control portions.
Lysozyme concentration was determined using a UV detector (BioRad UV detector). A standard curve (UV absorption vs lysozyme concentration) was prepared by measuring the UV absorption of stock lysozyme solutions at different concentration ranging from 1 mg/ml to 4 mg/ml, Concentrations of the unknowns were then determined by extrapolation of the standard curve. […]

[2] = Repeat sustained release study of lysozyme from sulfated dextran beads: PBS elution at 0.84 ml/min, HPLC analysis; assay type: physicochemical
Description: The sustained release study described in the above Example was repeated except, in this instance, a different elution rate was used to determine if the rate of release of the lysozyme guest substance from the dextran is a function of the flow rate of the elution buffer.
More particularly, sulfated dextran beads were loaded with lysozyme as described in the above Example. The specifics of the loading were as follows: 42.4 g of the hydrated dextran beads was stirred in 100 ml of lysozyme solution (to yield a 20.11 mg/ml solution) for 1 hour. The loaded beads were then loaded into a column as described above for a further sustained release study.
For the PBS elution, the PBS wash (pH 7.4) was used to elute lysozyme from the beads at a flow rate of 0.84 ml/min for 20.6 hours. The eluted solution was collected in fractions, and the elution fractions were analyzed with HPLC for lysozyme concentration using a Vydac C18 HPLC column. For the high-salt elution, the remaining lysozyme in the beads was then eluted with the high-salt elution buffer at a rate of […].
The amount of lysozyme protein that eluted with the PBS wash was 39.51 mg and, from the high salt elution, the amount of lysozyme was 40.34 mg. Accumulated percent lysozyme release (Y) was plotted against elution time (X).

## lysozyme
[1]; control portion, immediately eluted with high salt elution buffer alone
  amount of lysozyme eluted in the elution buffer: 10.5 mg/ml wet beads
[1]; experimental portion (PBS washed beads, 19.6 hours), high salt elution buffer 1.0M ammonium sulfate, 50 mM sodium phosphate, pH 7.2
  amount of lysozyme eluted in the elution buffer: 3.72 mg/ml beads
[1]; experimental portion, PBS pH 7.4 wash for 19.6 hours, UV detector
  amount of lysozyme released during the PBS wash: not detectable
[2]; PBS elution at 0.84 ml/min, line equation Y=1.49X+0.242
  release rate (slope of accumulated percent release vs elution time): 1.49 %/hr
[2]; PBS pH 7.4, flow rate 0.84 ml/min for 20.6 hours, HPLC
  amount of lysozyme protein eluted with the PBS wash: 39.51 mg
[2]; remaining lysozyme eluted with high-salt elution buffer after the PBS wash
  amount of lysozyme from the high salt elution: 40.34 mg
